Where a chain is given by its changes, count along the chain named. Names may count otherwise.
B1: SufB of the purified SufB-SufC-SufD complex (natural protein, E. coli, UniProt P77522 1-495, looked up)
chain: MSRNTEATDDVKTWTGGPLNYKEGFFTQLATDELAKGINEEVVRAISAKRNEPEWMLEFRLNAYRAWLEMEEPHWLKAHYDKLNYQDYSYYSAPSCGNCDDTCASEPGAVQQTGANAFLSKEVEAAFEQLGVPVREGKEVAVDAIFDSVSVATTYREKLAEQGIIFCSFGEAIHDHPELVRKYLGTVVPGNDNFFAALNAAVASDGTFIYVPKGVRCPMELSTYFRINAEKTGQFERTILVADEDSYVSYIEGCSAPVRDSYQLHAAVVEVIIHKNAEVKYSTVQNWFPGDNNTGGILNFVTKRALCEGENSKMSWTQSETGSAITWKYPSCILRGDNSIGEFYSVALTSGHQQADTGTKMIHIGKNTKSTIISKGISAGHSQNSYRGLVKIMPTATNARNFTQCDSMLIGANCGAHTFPYVECRNNSAQLEHEATTSRIGEDQLFYCLQRGISEEDAISMIVNGFCKDVFSELPLEFAVEAQKLLAISLEHSVG
B2: SufC of the purified SufB-SufC-SufD complex (natural protein, E. coli)
chain: MLSIKDLHVSVEDKAILRGLSLDVHPGEVHAIMGPNGSGKSTLSATLAGREDYEVTGGTVEFKGKDLLALSPEDRAGEGIFMAFQYPVEIPGVSNQFFLQTALNAVRSYRGQETLDRFDFQDLMEEKIALLKMPEDLLTRSVNVGFSGGEKKRNDILQMAVLEPELCILDESDSGLDIDALKVVADGVNSLRDGKRSFIIVTHYQRILDYIKPDYVHVLYQGRIVKSGDFTLVKQLEEQGYGWLTEQQ
B3: SufD protein (natural protein, E. coli, UniProt P77689 1-423, looked up)
chain: MAGLPNSSNALQQWHHLFEAEGTKRSPQAQQHLQQLLRTGLPTRKHENWKYTPLEGLINSQFVSIAGEISPQQRDALALTLDSVRLVFVDGRYVPALSDATEGSGYEVSINDDRQGLPDAIQAEVFLHLTESLAQSVTHIAVKRGQRPAKPLLLMHITQGVAGEEVNTAHYRHHLDLAEGAEATVIEHFVSLNDARHFTGARFTINVAANAHLQHIKLAFENPLSHHFAHNDLLLAEDATAFSHSFLLGGAVLRHNTSTQLNGENSTLRINSLAMPVKNEVCDTRTWLEHNKGFCNSRQLHKTIVSDKGRAVFNGLINVAQHAIKTDGQMTNNNLLMGKLAEVDTKPQLEIYADDVKCSHGATVGRIDDEQIFYLRSRGINQQDAQQMIIYAFAAELTEALRDEGLKQQVLARIGQRLPGGAR
B4: N-terminal His-tag SufD with H360S mutation (natural protein, E. coli)
chain: B3 chain with H360S
B5: N-terminal His-tag SufD with H360C mutation (natural protein, E. coli)
chain: B3 chain with H360C
B6: wild-type SufD (reference of the gel filtration of His-tagged SufD proteins) (natural protein, E. coli)
chain: B3 chain

Key:
[1] = target: T1, SufD of the purified SufB-SufC-SufD complex (E. coli, UniProt P77689 1-423); experiment: SEC
T1 sequence: B3 chain

[2] = target: B1; experiment: SEC
[3] = target: the molecule itself; experiment: crystal structure
[4] = target: T2, N-terminally His10-tagged SufC protein (E. coli, UniProt P77499 1-248); experiment: SEC
T2 sequence (looked up): B2 chain

[5] = target: the molecule itself; experiment: SEC

Binder: B1
- stoichiometry N [1]: ~1

Binder: B2
- stoichiometry N [1]: ~2
- stoichiometry N [2]: ~2

Binder: B3
- stoichiometry N [3]: 2
- stoichiometry N [4]: ~1

Binder: B4
- stoichiometry N [5]: 2

Binder: B5
- stoichiometry N [5]: 2

Binder: B6
- stoichiometry N [5]: 2

— article PMC2744881 (Journal of molecular biology, 2009)
